T1: APBA1_2, Q02410
T1 sequence (Q02410 742-832, limits assumed, looked up): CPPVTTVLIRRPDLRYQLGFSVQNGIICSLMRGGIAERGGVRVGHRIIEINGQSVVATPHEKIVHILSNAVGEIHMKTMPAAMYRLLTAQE

T2: HTRA3, P83110
T2 sequence (P83110 354-453, limits assumed, looked up): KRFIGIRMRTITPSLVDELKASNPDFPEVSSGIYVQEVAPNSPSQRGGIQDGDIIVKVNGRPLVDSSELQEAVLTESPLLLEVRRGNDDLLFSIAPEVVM

T3: GRIP1_3, Q9Y3R0
T3 sequence (Q9Y3R0 247-346, limits assumed, looked up): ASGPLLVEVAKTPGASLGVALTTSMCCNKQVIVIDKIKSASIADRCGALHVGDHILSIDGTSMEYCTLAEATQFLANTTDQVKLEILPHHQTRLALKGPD

T4: TX1BP3, O14907
T4 sequence (O14907 10-122, limits assumed, looked up): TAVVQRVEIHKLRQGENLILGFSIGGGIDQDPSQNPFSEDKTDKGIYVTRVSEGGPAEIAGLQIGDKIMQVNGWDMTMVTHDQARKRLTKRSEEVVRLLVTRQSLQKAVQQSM

T5: SYNJ2BP, P57105
T5 sequence (P57105 8-110, limits assumed, looked up): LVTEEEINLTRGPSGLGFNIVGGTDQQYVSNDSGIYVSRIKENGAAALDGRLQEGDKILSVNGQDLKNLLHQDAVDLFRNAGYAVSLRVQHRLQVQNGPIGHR

T6: LNX2_3, Q8N448
T6 sequence (Q8N448 463-564, limits assumed, looked up): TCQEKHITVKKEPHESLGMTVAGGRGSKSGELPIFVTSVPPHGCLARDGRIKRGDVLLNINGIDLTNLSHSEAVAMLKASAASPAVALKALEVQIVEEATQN

T7: SHANK1, Q9Y566
T7 sequence (Q9Y566 658-767, limits assumed, looked up): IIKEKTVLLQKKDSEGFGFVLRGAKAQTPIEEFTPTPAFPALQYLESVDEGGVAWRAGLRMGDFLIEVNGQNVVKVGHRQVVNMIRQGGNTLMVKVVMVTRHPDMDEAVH

T8: MPDZ_10, O75970
T8 sequence (O75970 1624-1722, limits assumed, looked up): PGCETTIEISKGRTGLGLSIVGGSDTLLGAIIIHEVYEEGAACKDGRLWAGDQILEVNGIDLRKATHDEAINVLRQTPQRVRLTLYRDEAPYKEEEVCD

T9: SNTB1, Q13884
T9 sequence (Q13884 107-205, limits assumed, looked up): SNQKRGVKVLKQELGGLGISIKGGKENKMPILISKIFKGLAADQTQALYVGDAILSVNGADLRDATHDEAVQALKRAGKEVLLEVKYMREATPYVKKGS

T10: PDZD7_3, Q9H5P4
T10 sequence (Q9H5P4 857-944, limits assumed, looked up): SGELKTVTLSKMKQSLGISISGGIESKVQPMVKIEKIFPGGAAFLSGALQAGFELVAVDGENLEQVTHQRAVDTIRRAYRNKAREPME

T11: APBA1_1, Q02410
T11 sequence (Q02410 651-752, limits assumed, looked up): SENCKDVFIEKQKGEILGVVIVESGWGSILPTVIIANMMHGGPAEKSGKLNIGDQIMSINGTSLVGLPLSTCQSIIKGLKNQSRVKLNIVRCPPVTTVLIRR

T12: GRIP1_7, Q9Y3R0
T12 sequence (Q9Y3R0 999-1096, limits assumed, looked up): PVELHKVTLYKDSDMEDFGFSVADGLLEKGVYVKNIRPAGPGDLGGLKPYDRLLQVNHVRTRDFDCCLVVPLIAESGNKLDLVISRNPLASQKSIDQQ

T13: MPP7, Q5T2T1
T13 sequence (Q5T2T1 134-230, limits assumed, looked up): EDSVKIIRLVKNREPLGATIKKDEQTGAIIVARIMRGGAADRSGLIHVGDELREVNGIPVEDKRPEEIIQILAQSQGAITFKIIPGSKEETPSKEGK


These binders were tested against PARD3_3, Q8TEW0 (assay: holdup assay). Conditions: plain residues with an end cap or a label only (N-terminal biotin on a linker: ado-ado).
Chain of PARD3_3, Q8TEW0 (Q8TEW0 582-685): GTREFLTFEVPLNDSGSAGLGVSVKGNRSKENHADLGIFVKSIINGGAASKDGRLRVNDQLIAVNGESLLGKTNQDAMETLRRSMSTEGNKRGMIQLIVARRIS
Design: key: below the threshold = too weak to quantify, mostly under pKd 3.1 to 4

Binder | pKd
PEEGKKQSQC [GAGE12J, A6NER3] | below the threshold

Each binder was assayed against Inadl_1, Q8NI35 (assay: holdup assay). Conditions: plain residues with an end cap or a label only (N-terminal biotin on a linker: ado-ado).
Chain of Inadl_1, Q8NI35 (Q8NI35 113-229): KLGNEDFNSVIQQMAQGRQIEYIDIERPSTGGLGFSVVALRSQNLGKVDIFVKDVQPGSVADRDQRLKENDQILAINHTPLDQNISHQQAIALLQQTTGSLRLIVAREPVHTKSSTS
Design: key: below the threshold = too weak to quantify, mostly under pKd 3.1 to 4

Binder | pKd
PEEGKKQSQC [GAGE12J, A6NER3] | below the threshold

The binders below were run against T1, APBA1_2, Q02410 (assay: holdup assay). Conditions: plain residues with an end cap or a label only (N-terminal biotin on a linker: ado-ado).
Design: key: below the threshold = too weak to quantify, mostly under pKd 3.1 to 4

Binder | pKd
PEEGKKQSQC [GAGE12J, A6NER3] | below the threshold

These binders were tested against GIPC2, Q8TF65 (assay: holdup assay). Conditions: plain residues with an end cap or a label only (N-terminal biotin on a linker: ado-ado).
Chain of GIPC2, Q8TF65 (Q8TF65 112-203): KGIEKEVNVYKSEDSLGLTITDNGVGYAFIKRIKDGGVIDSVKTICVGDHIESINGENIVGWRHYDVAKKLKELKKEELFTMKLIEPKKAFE
Design: key: below the threshold = too weak to quantify, mostly under pKd 3.1 to 4

Binder | pKd
PEEGKKQSQC [GAGE12J, A6NER3] | 3.62

The binders below were run against DLG2_2, Q15700 (assay: holdup assay). Conditions: plain residues with an end cap or a label only (N-terminal biotin on a linker: ado-ado).
Chain of DLG2_2, Q15700 (Q15700 189-283): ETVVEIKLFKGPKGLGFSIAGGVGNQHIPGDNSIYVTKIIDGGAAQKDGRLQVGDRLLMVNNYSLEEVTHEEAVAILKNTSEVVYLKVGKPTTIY
Design: key: below the threshold = too weak to quantify, mostly under pKd 3.1 to 4

Binder | pKd
PEEGKKQSQC [GAGE12J, A6NER3] | below the threshold

The binders below were run against T2, HTRA3, P83110 (assay: holdup assay). Conditions: plain residues with an end cap or a label only (N-terminal biotin on a linker: ado-ado).
Design: key: below the threshold = too weak to quantify, mostly under pKd 3.1 to 4

Binder | pKd
PEEGKKQSQC [GAGE12J, A6NER3] | below the threshold

Each binder was assayed against T3, GRIP1_3, Q9Y3R0 (assay: holdup assay). Conditions: plain residues with an end cap or a label only (N-terminal biotin on a linker: ado-ado).
Design: key: below the threshold = too weak to quantify, mostly under pKd 3.1 to 4

Binder | pKd
PEEGKKQSQC [GAGE12J, A6NER3] | below the threshold

Each binder was assayed against FRMPD2_1, Q68DX3 (assay: holdup assay). Conditions: plain residues with an end cap or a label only (N-terminal biotin on a linker: ado-ado).
Chain of FRMPD2_1, Q68DX3 (Q68DX3 770-861): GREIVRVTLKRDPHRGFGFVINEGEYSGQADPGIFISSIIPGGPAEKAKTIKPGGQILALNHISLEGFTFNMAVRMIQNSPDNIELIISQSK
Design: key: below the threshold = too weak to quantify, mostly under pKd 3.1 to 4

Binder | pKd
PEEGKKQSQC [GAGE12J, A6NER3] | below the threshold

What follows are binders tested against T4, TX1BP3, O14907 (assay: holdup assay). Conditions: plain residues with an end cap or a label only (N-terminal biotin on a linker: ado-ado).
Design: key: below the threshold = too weak to quantify, mostly under pKd 3.1 to 4

Binder | pKd
PEEGKKQSQC [GAGE12J, A6NER3] | below the threshold

These binders were tested against T5, SYNJ2BP, P57105 (assay: holdup assay). Conditions: plain residues with an end cap or a label only (N-terminal biotin on a linker: ado-ado).
Design: key: below the threshold = too weak to quantify, mostly under pKd 3.1 to 4

Binder | pKd
PEEGKKQSQC [GAGE12J, A6NER3] | 3.54

What follows are binders tested against T6, LNX2_3, Q8N448 (assay: holdup assay). Conditions: plain residues with an end cap or a label only (N-terminal biotin on a linker: ado-ado).
Design: key: below the threshold = too weak to quantify, mostly under pKd 3.1 to 4

Binder | pKd
PEEGKKQSQC [GAGE12J, A6NER3] | below the threshold

What follows are binders tested against T7, SHANK1, Q9Y566 (assay: holdup assay). Conditions: plain residues with an end cap or a label only (N-terminal biotin on a linker: ado-ado).
Design: key: below the threshold = too weak to quantify, mostly under pKd 3.1 to 4

Binder | pKd
PEEGKKQSQC [GAGE12J, A6NER3] | below the threshold

Each binder was assayed against T8, MPDZ_10, O75970 (assay: holdup assay). Conditions: plain residues with an end cap or a label only (N-terminal biotin on a linker: ado-ado).
Design: key: below the threshold = too weak to quantify, mostly under pKd 3.1 to 4

Binder | pKd
PEEGKKQSQC [GAGE12J, A6NER3] | below the threshold

Each binder was assayed against T9, SNTB1, Q13884 (assay: holdup assay). Conditions: plain residues with an end cap or a label only (N-terminal biotin on a linker: ado-ado).
Design: key: below the threshold = too weak to quantify, mostly under pKd 3.1 to 4

Binder | pKd
PEEGKKQSQC [GAGE12J, A6NER3] | below the threshold

The binders below were run against T10, PDZD7_3, Q9H5P4 (assay: holdup assay). Conditions: plain residues with an end cap or a label only (N-terminal biotin on a linker: ado-ado).
Design: key: below the threshold = too weak to quantify, mostly under pKd 3.1 to 4

Binder | pKd
PEEGKKQSQC [GAGE12J, A6NER3] | below the threshold

What follows are binders tested against NHERF4_4, Q86UT5 (assay: holdup assay). Conditions: plain residues with an end cap or a label only (N-terminal biotin on a linker: ado-ado).
Chain of NHERF4_4, Q86UT5 (Q86UT5 464-550): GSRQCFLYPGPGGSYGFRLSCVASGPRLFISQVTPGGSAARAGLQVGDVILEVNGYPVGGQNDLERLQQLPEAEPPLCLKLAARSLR
Design: key: below the threshold = too weak to quantify, mostly under pKd 3.1 to 4

Binder | pKd
PEEGKKQSQC [GAGE12J, A6NER3] | below the threshold

What follows are binders tested against T11, APBA1_1, Q02410 (assay: holdup assay). Conditions: plain residues with an end cap or a label only (N-terminal biotin on a linker: ado-ado).
Design: key: below the threshold = too weak to quantify, mostly under pKd 3.1 to 4

Binder | pKd
PEEGKKQSQC [GAGE12J, A6NER3] | below the threshold

These binders were tested against MAST1, Q9Y2H9 (assay: holdup assay). Conditions: plain residues with an end cap or a label only (N-terminal biotin on a linker: ado-ado).
Chain of MAST1, Q9Y2H9 (Q9Y2H9 962-1065): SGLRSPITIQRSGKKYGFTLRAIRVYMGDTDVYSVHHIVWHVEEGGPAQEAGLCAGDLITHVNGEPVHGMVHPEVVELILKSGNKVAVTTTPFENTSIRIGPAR
Design: key: below the threshold = too weak to quantify, mostly under pKd 3.1 to 4

Binder | pKd
PEEGKKQSQC [GAGE12J, A6NER3] | 3.6

What follows are binders tested against GRID2IP_2, A4D2P6 (assay: holdup assay). Conditions: plain residues with an end cap or a label only (N-terminal biotin on a linker: ado-ado).
Chain of GRID2IP_2, A4D2P6 (A4D2P6 272-370): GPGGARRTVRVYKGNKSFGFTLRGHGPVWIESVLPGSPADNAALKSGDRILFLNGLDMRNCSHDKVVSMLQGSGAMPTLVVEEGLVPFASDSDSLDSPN
Design: key: below the threshold = too weak to quantify, mostly under pKd 3.1 to 4

Binder | pKd
PEEGKKQSQC [GAGE12J, A6NER3] | 3.49

The binders below were run against T12, GRIP1_7, Q9Y3R0 (assay: holdup assay). Conditions: plain residues with an end cap or a label only (N-terminal biotin on a linker: ado-ado).
Design: key: below the threshold = too weak to quantify, mostly under pKd 3.1 to 4

Binder | pKd
PEEGKKQSQC [GAGE12J, A6NER3] | below the threshold

What follows are binders tested against GRID2IP_1, A4D2P6 (assay: holdup assay). Conditions: plain residues with an end cap or a label only (N-terminal biotin on a linker: ado-ado).
Chain of GRID2IP_1, A4D2P6 (A4D2P6 1-87): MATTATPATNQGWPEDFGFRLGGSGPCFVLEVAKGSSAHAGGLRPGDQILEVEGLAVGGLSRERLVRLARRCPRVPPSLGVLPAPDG
Design: key: below the threshold = too weak to quantify, mostly under pKd 3.1 to 4

Binder | pKd
PEEGKKQSQC [GAGE12J, A6NER3] | below the threshold

The binders below were run against T13, MPP7, Q5T2T1 (assay: holdup assay). Conditions: plain residues with an end cap or a label only (N-terminal biotin on a linker: ado-ado).
Design: key: below the threshold = too weak to quantify, mostly under pKd 3.1 to 4

Binder | pKd
PEEGKKQSQC [GAGE12J, A6NER3] | below the threshold

These binders were tested against MAGI3_2, Q5TCQ9 (assay: holdup assay). Conditions: plain residues with an end cap or a label only (N-terminal biotin on a linker: ado-ado).
Chain of MAGI3_2, Q5TCQ9 (Q5TCQ9 398-503): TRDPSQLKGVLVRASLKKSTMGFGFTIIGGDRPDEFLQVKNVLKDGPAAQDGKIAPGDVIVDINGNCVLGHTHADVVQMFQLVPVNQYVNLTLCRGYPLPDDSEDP
Design: key: below the threshold = too weak to quantify, mostly under pKd 3.1 to 4

Binder | pKd
PEEGKKQSQC [GAGE12J, A6NER3] | below the threshold
